In patent US20160074468A1 (GENUS ONCOLOGY, published 2016):

Legend:
[1] = biological target: T1, HER2/ERBB2 receptor tyrosine kinase (human, UniProt P04626 23-1255); test: co-immunoprecipitation: anti-MUC1-C precipitates of SKBR3 and BT474 lysates, immunoblot (FIG. 1B)
T1 construct: whole, on cells; Endogenous HER2 in cell lysates, detected by anti-HER2 immunoblot of precipitates or GST adsorbates; also called Neu; CD340
Excerpt: (FIG. 1C). […] Lysates were immunoblotted with the indicated antibodies. […] IP, immunoprecipitated.

[2] = biological target: T1, HER2/ERBB2 receptor tyrosine kinase; test: GST pull-down from SKBR3 cell lysates, anti-HER2 immunoblot (FIG. 2A, left)
Description: Lysates from SKBR3 (left) and BT474 (right) cells were incubated with the indicated GST or GST-fusion proteins. The adsorbates were immunoblotted (IB) with anti-HER2. Input of the GST proteins was assessed by Coomassie blue staining. […] Lysates were immunoblotted with the indicated antibodies. […] Lysates were immunoblotted with the indicated antibodies. […] Cell number (mean±s.e. of three determinations) was determined by Trypan blue staining. IP, immunoprecipitated.

| binding result [1] | binding result [2] | Binder |
| --- | --- | --- |
| binds | – | MUC1 C-terminal subunit (MUC1-C) (other, Endogenous MUC1-C in lysates of SKBR3, BT474, SKBR3R and BT474R human breast cancer cells, precipitated with anti-MUC1-C) GSVVVQLTLAFREGTINVHDVETQFNQYKTEAASRYNLTISDVSVSDVPFPFSAQSGAGVPGWGIALLVLVCVLVALAIVYLIALAVCQCRRKNYGQLDIFPARDTYHPMSEYPTYHTHGRYVPPSSTDRSPYEKVSAGNGGSSLSYTNPAVAATSANL |
| – | no binding | GST-MUC1-CD in which the CQC motif had been mutated to AQA (other, not shown: a dimerising Fc or GST; large carriers; small tags and cut ends, also called MUC1-CD(AQA)) AQARRKNYGQLDIFPARDTYHPMSEYPTYHTHGRYVPPSSTDRSPYEKVSAGNGGSSLSYTNPAVAATSANL |
